Legend:
Assay in all cases: cell-based or functional assay
[1] = molecular target: S protein of authentic SARS-CoV-2 Omicron BA.1 virus (SARS-CoV-2, UniProt P0DTC2 14-1273)
[2] = molecular target: S protein of authentic SARS-CoV-2 Omicron BA.5 virus (SARS-CoV-2, UniProt P0DTC2 14-1273)
[3] = molecular target: S protein of authentic SARS-CoV-2 Omicron BA.2 virus (SARS-CoV-2, UniProt P0DTC2 14-1273)
[4] = molecular target: S protein (SΔ19) of Omicron BQ.1.1 pseudovirus (SARS-CoV-2, UniProt P0DTC2 14-1254)
[5] = molecular target: S protein (SΔ19) of Omicron BQ.1 pseudovirus (SARS-CoV-2, UniProt P0DTC2 14-1254)

| Binder | IC50, microneutralization assay with authentic virus [1] | fold increase of neutralization activity over parental IgG, authentic virus [1] | IC50, microneutralization assay with authentic virus [2] | fold increase of neutralization activity over parental IgG, authentic virus [2] | IC50, microneutralization assay with authentic virus [3] | fold increase of neutralization activity over parental IgG, authentic virus [3] | fold more potent in neutralizing than IgG, authentic virus [2] | IC50, pseudovirus assay (HIV platform) [4] | fold increase of neutralizing activity compared to IgG, pseudovirus [4] | IC50, pseudovirus assay (HIV platform) [5] | fold increase of neutralizing activity compared to IgG, pseudovirus [5] |
| --- | --- | --- | --- | --- | --- | --- | --- | --- | --- | --- | --- |
| DXP-604 monomeric IgA1 (antibody) heavy: not shown light: DIQLTQSPSFLSASVGDRVTITCRASQGISSDLAWYQQKPGKAPNLLIYAASTLQSGVPSRFSGSGSGTEFTLTISSLQPEDFATYYCQQLNSDLYTFGQGTKLEIKRTVAAPSVFIFPPSDEQLKSGTASVVCLLNNFYPREAKVQWKVDNALQSGNSQESVTEQDSKDSTYSLSSTLTLSKADYEKHKVYACEVTHQGLSSPVTKSFNRGEC | 3.43 nM | 6.7 fold | 0.35 nM | 35.5 fold | 0.16 nM | 17 fold | – | – | – | – | – |
| DXP-604 dimeric IgA1 (antibody) heavy: not shown light: DIQLTQSPSFLSASVGDRVTITCRASQGISSDLAWYQQKPGKAPNLLIYAASTLQSGVPSRFSGSGSGTEFTLTISSLQPEDFATYYCQQLNSDLYTFGQGTKLEIKRTVAAPSVFIFPPSDEQLKSGTASVVCLLNNFYPREAKVQWKVDNALQSGNSQESVTEQDSKDSTYSLSSTLTLSKADYEKHKVYACEVTHQGLSSPVTKSFNRGEC not shown | 0.38 nM | – | 0.13 nM | – | 0.06 nM | – | 92 fold | 4.88 nM | 1.8 fold | 3.2 nM | 2.6 fold |
| DXP-604 secretory IgA1 (antibody) heavy: not shown light: DIQLTQSPSFLSASVGDRVTITCRASQGISSDLAWYQQKPGKAPNLLIYAASTLQSGVPSRFSGSGSGTEFTLTISSLQPEDFATYYCQQLNSDLYTFGQGTKLEIKRTVAAPSVFIFPPSDEQLKSGTASVVCLLNNFYPREAKVQWKVDNALQSGNSQESVTEQDSKDSTYSLSSTLTLSKADYEKHKVYACEVTHQGLSSPVTKSFNRGEC chain 1: not shown chain 2: not shown | 0.44 nM | – | 0.09 nM | – | 0.03 nM | – | – | 1.59 nM | 5.5 fold | 1.41 nM | 6 fold |
